Earlier results on one substance are cited in paper PMC6964287.

Data set [1] concerns the target Asp85 (UniProt position 98, WARYADWLFTT). The data set can be described thus: NMR. The note with it: membrane-associated pHLIP; protonation linked to bilayer insertion.
Data set [2] addresses Asp96 (UniProt position 109, PLLLLDLALLV). The data set can be described thus: NMR. The settings on record: membrane-associated pHLIP; protonation linked to bilayer insertion.

Turning to “pHLIP (pH-Low Insertion Peptide), peptide derived from bacteriorhodopsin helix C (Halobacterium salinarum)”, the values for the pKa in data set [1] and in data set [2] were 5.82 ± 0.08 and 6.08 ± 0.08, respectively.
